According to US12018084B2, “Anti-CXCR2 antibodies and uses thereof” (Cephalon LLC, priority 2018, dated 2024):
Positions count from the first letter of the chain named. Read-outs that look alike come from different tables or passages of the source.

Tests used:
[1] = target: T1, native human CXCR2 expressed by human neutrophils (Homo sapiens, UniProt P25025); assay: Flow cytometry binding to human blood cells (neutrophils, monocytes, PBMC preparations)
T1 construct: native human CXCR2 expressed by human neutrophils; endogenous in cells; host or cells: human peripheral blood cells (buffy coat, PBMC-enriched fractions, anticoagulated blood): neutrophils, monocytes
T1 sequence (P25025 1-360): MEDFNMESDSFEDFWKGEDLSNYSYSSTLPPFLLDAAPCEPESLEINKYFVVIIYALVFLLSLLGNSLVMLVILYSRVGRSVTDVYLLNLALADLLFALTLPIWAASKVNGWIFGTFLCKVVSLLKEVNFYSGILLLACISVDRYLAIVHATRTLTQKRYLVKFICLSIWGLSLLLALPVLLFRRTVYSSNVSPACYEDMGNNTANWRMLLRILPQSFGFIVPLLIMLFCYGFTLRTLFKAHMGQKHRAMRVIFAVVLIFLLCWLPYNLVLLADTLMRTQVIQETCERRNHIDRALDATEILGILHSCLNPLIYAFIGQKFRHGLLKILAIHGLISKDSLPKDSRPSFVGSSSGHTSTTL
Procedure: Whole human buffy coat, PBMC enriched fractions prepared from human peripheral blood buffy coat or cynomolgus monkey whole blood was used for analysis of antibody binding activity by flow cytometry. Briefly, blood was untreated or diluted 1:1 in sterile filtered room temperature phosphate-buffered saline (PBS). 30 mL samples were layered over 15 mL Lymphoprep™ (Stem Cell Technologies, cat #07851). Peripheral blood mononuclear cells (PBMC) were enriched by room temperature centrifugation at 700 g for 30 minutes with no braking. The PBMC layer was isolated and cells washed in PBS containing 2 mM EDTA with low speed centrifugation at 200 g, to remove platelet contamination. Whole blood or PBMC enriched cell fractions were resuspended in red blood cell lysing solution (BioLegend, 420301). Viable cell counts were determined and cells resuspended at 1×10^7 cells per mL in FACS buffer (1×PBS+0.5% (w/v) BSA+2 mM EDTA pH 7.2).
Flow cytometry binding assays using whole blood or PBMC enriched preparations: Binding assays to detect CXCR2 on blood neutrophil populations using test antibodies were performed essentially as described for assays using transiently transfected Expi293F™ cells. Binding of antibodies to human CXCR2 on the surface of the neutrophils was measured using anti-CXCR2 antibody directly conjugated to the fluorophore allophycocyanin (APC). Matched isotype control antibodies were included for comparison. Cells were incubated with lineage specific antibodies and 2 μg/ml of APC conjugated anti-CXCR2 antibody or isotype control prepared in ice cold 3% BSA/PBS for a minimum of 30 minutes at 4° C. The commercial anti-CXCR2 antibody (clone 48331 (R&D Systems FAB331A)) was used as a positive control. Neutrophil populations were identified by characteristic granularity and size, and positive binding of commercially available antibodies against CD10 (Biolegend, clone H110a, catalogue number 312204). Cells were washed and fixed (BioLegend Fixation buffer, 420801) prior to analysis. The level of fluorescence on the cell surface was measured by flow cytometry. Using this method, test anti-CXCR2 antibodies were detected binding neutrophils from both human and cynomolgus monkey.
To further characterize the anti-CXCR2 antibody BKO-4A8-101c, the ability to bind CXCR2 on neutrophils was tested on anticoagulated human blood. Binding was measured using BKO-4A8-101c directly conjugated to fluorophore APC. Matched isotype control antibodies conjugated to APC were included for comparison. Cells were incubated with lineage-specific antibodies and 2 μg/mL of APC conjugated anti-CXCR2 antibody or isotype control. The level of fluorescence on the cell surface was measured by flow cytometry. […]

[2] = target: T2, Human CXCR2 (Homo sapiens, UniProt P25025); assay: Tango CXCR2-bla U2OS cell-based β-arrestin recruitment assay; design: The beta-arrestin/TEV protease fusion and the beta-lactamase reporter are separate parts of the cell line
T2 sequence (P25025 1-360): T1 sequence (P25025 1-360)
Description: Cells were thawed, propagated, cultured and frozen according to the manufacturer's directions.
Preparation of Tango™ CXCR2-bla U2OS cells for use in cell-based assays: The manufacturer's protocol was altered to make use of 96-well plates instead of 384-well plates. Briefly, dividing cells were harvested one day prior to use. Cells were harvested and resuspended in assay medium (100% FreeStyle™ Expression Medium; Life Technologies; Cat #12338-018) at a viable cell density of 312,500 cells/mL. 128 μL of cell suspension was added per well in 96-well black-walled, clear bottom tissue culture-treated plates. Cells were incubated for 16-20 hrs at 37° C. in an atmosphere of 5% CO2 prior to use in assays.
Tango™ assay procedure: Assays were set up and run as described in the manufacturer's protocol. For antagonist assays, agonists were used at concentrations in the EC50-EC80 range. Assays were read using a FlexStation® 3 (Molecular Devices) fluorescence plate reader configured with the parameters given in Table 4. The blue/green emission ratio for each well was calculated by dividing the blue emission values by the green emission values. All inhibition curves were fitted using a four-parameter dose-response using GraphPad Prism™ (Version 7.01).
The Human CXCR2 Tango™ cell line was used to assess the ability of antibody BKO-4A8-101c to inhibit β-arrestin recruitment to agonist-activated CXCR2. All human ELR+ chemokine CXCR2 ligands were tested in antagonist dose response assays using calculated EC50 values of agonist.
The commercially available reporter cell line Tango™ CXCR2-bla U2OS (ThermoFisher Scientific) was used to assess the ability of the anti-CXCR2 antibodies to inhibit β-arrestin recruitment to agonist-activated CXCR2. Agonists were provided at their assay EC50 concentration for antagonist assays.

B1: BKO-4A8: parental anti-CXCR2 antibody, VH SEQ ID NO: 17, VL SEQ ID NO: 18 (antibody, V domains shown)
VH: EVQLLESGGGLVQPGGSLRLSCAASGFTFSSSTMSWVRQAPGKGLEWVSAISGRGRNTYYADSVKGRFTISRDNSRNTLYLQMNSLRAEDTAVYYCAIQMGYWGQGILVTVSS
VL: QSALTQPPSASGSPGQSVTISCIGTSSDVGGYNYVSWYQQHPDKAPKLMIYEVNKRPSGVPDRFSGSKSGNTASLTVSGLQAEDEADYYCSSYAGNNNFGVFGGGTKLTVL
modifications: BKO_4A8_VH; BKO_4A8_VL
B1 was tested, and the “binding to native human CXCR2 on human PBMCs / neutrophils” value ([1]; FIG. 2, MFI) was “high binding activity”, the “potency of inhibition of CXCL1-mediated activation of CXCR2, ranking” value ([2]; agonist CXCL1, BKO-4A8, BKO-8G3_b, BKO-9C3_a compared) was “consistently the most potent” and the IC50 ([2]; agonist CXCL1, combinatorial variants, read-out: CXCL1 IC50) was 94 nM. It also gave an IC50 ([2]; agonist CXCL1, point variants, read-out: Tango Assay IC50 (nM) CXCL1) of 0.177 nM, an IC50 ([2]; read-out: CXCL8 IC50, agonist CXCL8, combinatorial variants) of 0.66 nM and an IC50 ([2]; read-out: Tango Assay IC50 (nM) CXCL8, agonist CXCL8, point variants) of 0.112 nM.

B2: 101c: VH SEQ ID NO: 108, VL SEQ ID NO: 110; renamed BKO-4A8-101c (antibody, V domains shown)
VH: B1 VH with M34Q, A40P, N57S, R76K, M100A
VL: B1 VL with D43G, N54S, N96S
modifications: 4A8 VH Variant 101 M34Q_A40P_N56S_R75K_M96A; 4A8 VL variant c D41G_N52S_N94S
notes: renamed BKO-4A8-101c
With B2 the “binding to neutrophils and monocytes from human blood” value ([1]; APC conjugate, 2 μg/mL) was “bound neutrophils (FIG. 12A) and monocytes (FIG. 12B)”, the “fold more potent than comparator CXCR2 antagonist antibodies or small molecules” value ([2]; CXCL1- or CXCL5-mediated β-arrestin activation, based on IC50 values) was 2- to 39 fold and the “CXCL1 Maximal Inhibition %” value ([2]; CXCL1 at EC50, comparison with comparators) was 97%. For the same molecule, the “potency compared to the parental antibody” value ([2]; CXCL1 or CXCL8 as agonist) was “improved potency”, the “CXCL5 Maximal Inhibition %” value ([2]; CXCL5 at EC50, comparison with comparators) was 98% and the “partial inhibition of CXCL8-induced β-arrestin recruitment (range)” value ([2]; CXCL8) was 70-80%. The “CXCL8 Maximal Inhibition %” value ([2]; CXCL8 at EC50, comparison with comparators) was 78%, the “Maximal Inhibition % Mean” value ([2]; Hu CXCL1) was 98% and the “Maximal Inhibition % Mean” value ([2]; Hu CXCL2) was 100%. For the same molecule, the “Maximal Inhibition % Mean” value ([2]; Hu CXCL3) was 96%, the “Maximal Inhibition % Mean” value ([2]; Hu CXCL5) was 98% and the “Maximal Inhibition % Mean” value ([2]; Hu CXCL6) was 98%. The “Maximal Inhibition % Mean” value ([2]; Hu CXCL7) was 76% and the “Maximal Inhibition % Mean” value ([2]; Hu CXCL8) was 78%.
